According to US20230265151A1, “GIP/GLP1 CO-AGONIST COMPOUNDS” (priority 2020, published 2023):
*1 amine or outer side, *2 acyl side, *3 side chain or, on linkers, in order; H or OH if unused. Where no end group is shown, it is not given here. Side-chain parts run from the residue outwards. [ ]: non-standard residue; d: D form. The star is where a group is joined. αMePhe(2-F) = C[C@](N)(Cc1ccccc1F)C(=O)O; γGlu = O=C(O)[C@H](CCC(=O)[*:2])N[*:1]; C14 diacid = O=C(O)CCCCCCCCCCCCC(=O)*; αMeY = C[C@](N)(Cc1ccc(O)cc1)C(=O)O; αMeL = CC(C)C[C@](C)(N)C(=O)O; Orn = NCCC[C@H](N)C(=O)O; AEEA = NCCOCCOCC(=O)O; Aib = CC(C)(N)C(=O)O

T1: human GIP receptor (human) (UniProt P48546)
T1 sequence (looked up): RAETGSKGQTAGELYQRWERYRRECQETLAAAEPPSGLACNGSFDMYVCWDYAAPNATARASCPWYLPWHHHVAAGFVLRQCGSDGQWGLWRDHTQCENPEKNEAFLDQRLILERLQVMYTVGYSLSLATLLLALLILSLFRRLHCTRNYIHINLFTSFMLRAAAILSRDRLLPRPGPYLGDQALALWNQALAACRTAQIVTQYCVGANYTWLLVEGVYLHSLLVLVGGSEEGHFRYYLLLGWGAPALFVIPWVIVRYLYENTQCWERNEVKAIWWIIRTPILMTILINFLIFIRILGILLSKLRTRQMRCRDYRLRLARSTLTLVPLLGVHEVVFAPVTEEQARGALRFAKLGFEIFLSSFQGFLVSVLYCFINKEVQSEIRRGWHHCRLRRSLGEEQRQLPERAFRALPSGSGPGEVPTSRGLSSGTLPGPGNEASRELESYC

T2: human GIP receptor (human, UniProt P48546 22-466)
T2 construct: whole, on cells; also called hGIPR; human glucose-dependent insulinotropic polypeptide receptor
T2 sequence (looked up): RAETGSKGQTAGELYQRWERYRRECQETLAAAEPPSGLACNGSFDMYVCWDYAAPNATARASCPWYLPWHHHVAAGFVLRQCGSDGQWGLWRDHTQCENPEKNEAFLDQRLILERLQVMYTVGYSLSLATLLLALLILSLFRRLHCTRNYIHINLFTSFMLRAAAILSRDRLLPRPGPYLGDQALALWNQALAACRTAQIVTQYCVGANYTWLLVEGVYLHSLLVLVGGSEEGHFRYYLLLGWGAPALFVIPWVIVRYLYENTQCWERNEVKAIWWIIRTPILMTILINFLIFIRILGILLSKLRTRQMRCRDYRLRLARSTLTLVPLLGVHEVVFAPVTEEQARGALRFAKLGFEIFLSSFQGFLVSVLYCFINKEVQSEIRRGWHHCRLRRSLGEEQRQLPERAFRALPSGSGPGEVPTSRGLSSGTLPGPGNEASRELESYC


How the values were obtained:
[1] = biological target: T1, human GIP receptor (human); test: cell-based or functional assay
[2] = biological target: human glucagon receptor (human) (UniProt P47871); test: cell-based or functional assay
[3] = biological target: hGLP-1R (Homo sapiens, UniProt P43220); test: cell-based or functional assay
[4] = biological target: T2, human GIP receptor; test: SPA competition vs [125I]-GIP, hGIPR membranes
Procedure: The binding buffer contains 25 mM HEPES, pH 7.4, 2.5 mM CaCl₂, 1 mM MgCl₂, 0.1% (w/v) bacitracin, 0.003% (w/v) TWEEN®-20, and Roche Complete™ Protease Inhibitors without EDTA. […] Plates are sealed and mixed on a plate shaker (setting 6) for 1 minute and read with a PerkinElmer Trilux MicroBeta® scintillation counter after 2.5 to 12 hours of incubation/settling time at room temperature.
(§1) Data are analyzed using four-parameter (curve maximum, curve minimum, IC₅₀, Hill slope) nonlinear regression routines (Genedata Screener, version 12.0.4, Genedata AG, Basal, Switzerland). […] Values for Kᵢ are reported as the geometric mean, with error expressed as the standard error of the mean (SEM) and n is equal to the number of independent replicates (determined in assays performed on different days). Geometric Means are calculated as follows: […]

[5] = biological target: T3, human GLP-1 receptor (human, UniProt P43220 24-463); test: SPA competition vs [125I]-GLP-1, hGLP-1R membranes
T3 construct: whole, on cells; also called hGLP-1R; human glucagon-like peptide-1 receptor
Procedure: The binding buffer contains 25 mM HEPES, pH 7.4, 2.5 mM CaCl₂, 1 mM MgCl₂, 0.1% (w/v) bacitracin, 0.003% (w/v) TWEEN®-20, and Roche Complete™ Protease Inhibitors without EDTA.
as §1

Row | Molecule | cAMP EC50 (1.0% HSA) [1] [nM] | cAMP Emax (1.0% HSA) [1] [%] | cAMP EC50 (1.0% HSA) [2] [nM] | cAMP EC50 (1.0% HSA) [3] [nM] | cAMP Emax (1.0% HSA) [3] [%] | Ki [4] [nM] | Ki [5] [nM]
1 | Y-Aib-EGT-αMeF(2F)-TSD-4Pal-SI-αMeL-LD-Orn-K((εK)-(γ-Glu)-CO-(CH2)12-CO2H)AQ-Aib-EFI-(D-Glu)-αMeY-LIEGGK((εK)-(γ-Glu)-CO-(CH2)12-CO2H)-NH2 (peptide) | 2.19 | 85.6 | > 9950 | 24.3 | 107 | – | –
2 | Y-Aib-EGT-αMeF(2F)-TSD-4Pal-SI-αMeL-LD-Orn-IAQ-Aib-K((2-[2-(2-Amino-ethoxy)-ethoxy]-acetyl)2-(γ-Glu)-CO-(CH2)12-CO2H)FIK((2-[2-(2-Amino-ethoxy)-ethoxy]-acetyl)2-(γ-Glu)-CO-(CH2)12-CO2H)-αMeY-…-NH2 (peptide) | 2.32 | 86.8 | > 9950 | 18.9 | 102 | – | –
3 | Y-Aib-EGT-αMeF(2F)-TSD-4Pal-SI-αMeL-LD-Orn-IAQ-Aib-EFIK((2-[2-(2-Amino-ethoxy)-ethoxy]-acetyl)2-(γ-Glu)-CO-(CH2)12-CO2H)-αMeY-…((2-[2-(2-Amino-ethoxy)-ethoxyl-acetyl)2-(γ-Glu)-CO-(CH2)12-CO2H)-NH2 (peptide) | 3.55 | 95.9 | > 9950 | 40.1 | 98.8 | – | –
4 | Y-Aib-EGT-αMeF(2F)-TSD-4Pal-αMeS-I-αMeL-LD-Orn-K((2-[2-(2-Amino-ethoxy)-ethoxy]-acetyl)2-(γ-Glu)-CO-(CH2)12-CO2H)AQ-Aib-EFIK((2-[2-(2-Amino-ethoxy)-ethoxy]-acetyl)2-(γ-Glu)-CO-(CH2)12-CO2H)-αMeY-…-NH2 (peptide) | 2.03 | 80.4 | > 9950 | 17.9 | 108 | – | –
5 | Y-Aib-EGT-αMeF(2F)-TSD-4Pal-SI-αMeL-LD-Orn-K((2-[2-(2-Amino-ethoxy)-ethoxy]-acetyl)2-(εK)-CO-(CH2)12-CO2H)AQ-Aib-EFI-(D-Glu)-αMeY-LIEGGK((2-[2-(2-Amino-ethoxy)-ethoxy]-acetyl)2-(εK)-CO-(CH2)12-CO2H)-NH2 (peptide) | 0.335 | 86.2 | > 9950 | 11.3 | 103 | – | –
6 | Y-Aib-EGT-αMeF(2F)-TSD-4Pal-SI-αMeL-LD-Orn-K((2-[2-(2-Amino-ethoxy)-ethoxy]-acetyl)2-(γ-Glu)-CO-(CH2)12-CO2H)AQ-Aib-EFI-(D-Glu)-αMeY-LIEGGK((2-[2-(2-Amino-ethoxy)-ethoxy]-acetyl)2-(γ-Glu)-CO-(CH2)12-CO2H)SSG-NH2 (peptide) | 1.22 | 75.5 | > 9950 | 66.6 | 97.3 | – | –
7 | Y-Aib-EGT-αMeF(2F)-TSD-4Pal-SI-αMeL-LD-Orn-K((2-[2-(2-Amino-ethoxy)-ethoxy]-acetyl)2-(γ-Glu)-CO-(CH2)12-CO2H)AQ-Aib-EFIK((2-[2-(2-Amino-ethoxy)-ethoxy]-acetyl)2-(γ-Glu)-CO-(CH2)12-CO2H)-αMeY-…-NH2 (peptide) | 1.37 | 89 | > 9950 | 19.1 | 106 | – | –
8 | Y[Aib]EGT[αMePhe(2-F)]TSDV[Aib]I[αMeL]LD[Orn]K([AEEA-AEEA-γGlu-C14 diacid])AQ[Aib]EFI[dE][αMeY]LIEGGK([AEEA-AEEA-γGlu-C14 diacid])SSGAPPPS-NH2 (N-terminus assumed; SMILES CC[C@H](C)[C@H](NC(=O)[C@H](CC(C)C)NC(=O)[C@](C)(Cc1ccc(O)cc1)NC(=O)[C@@H](CCC(=O)O)NC(=O)[C@@H](NC(=O)[C@H](Cc1ccccc1)NC(=O)[C@H](CCC(=O)O)NC(=O)C(C)(C)NC(=O)[C@H](CCC(N)=O)NC(=O)[C@H](C)NC(=O)[C@H](CCCCNC(=O)COCCOCCNC(=O)COCCOCCNC(=O)CC[C@H](NC(=O)CCCCCCCCCCCCC(=O)O)C(=O)O)NC(=O)[C@H](CCCN)NC(=O)[C@H](CC(=O)O)NC(=O)[C@H](CC(C)C)NC(=O)[C@](C)(CC(C)C)NC(=O)[C@@H](NC(=O)C(C)(C)NC(=O)[C@@H](NC(=O)[C@H](CC(=O)O)NC(=O)[C@H](CO)NC(=O)[C@@H](NC(=O)[C@](C)(Cc1ccccc1F)NC(=O)[C@@H](NC(=O)CNC(=O)[C@H](CCC(=O)O)NC(=O)C(C)(C)NC(=O)[C@@H](N)Cc1ccc(O)cc1)[C@@H](C)O)[C@@H](C)O)C(C)C)[C@@H](C)CC)[C@@H](C)CC)C(=O)N[C@@H](CCC(=O)O)C(=O)NCC(=O)NCC(=O)N[C@@H](CCCCNC(=O)COCCOCCNC(=O)COCCOCCNC(=O)CC[C@H](NC(=O)CCCCCCCCCCCCC(=O)O)C(=O)O)C(=O)N[C@@H](CO)C(=O)N[C@@H](CO)C(=O)NCC(=O)N[C@@H](C)C(=O)N1CCC[C@H]1C(=O)N1CCC[C@H]1C(=O)N1CCC[C@H]1C(=O)N[C@@H](CO)C(N)=O) | – | – | – | – | – | 0.126 | 1.26
9 | YXEGTXTSDVXIXLDXKAQXEFIXXLIEGGKSSGAPPPS (Aib2, αMeF(2F)6, αMeS11, αMeL13, Orn16, K17(Z1), Aib20, D-Glu24, αMeY25, K31(Z1), C-term NH2; Z1=AEEA2-(γ-Glu)-CO-(CH2)12-CO2H) | – | – | – | – | – | 0.161 | 1.17
10 | YXEGTXTSDXXIXLDXQAQXKFIXXLIKGGPSSGAPPPS (Aib2, αMeF(2F)6, 4Pal10, Aib11, αMeL13, Orn16, Aib20, K21(Z1), D-Glu24, αMeY25, K28(Z1), C-term NH2; Z1=AEEA2-(γ-Glu)-CO-(CH2)12-CO2H) | – | – | – | – | – | 0.064 | 0.964
11 | YXEGTXTSDXXIXLDXQAQXXFIKXLIKGGPSSGAPPPS (Aib2, αMeF(2F)6, 4Pal10, Aib11, αMeL13, Orn16, Aib20, Orn21, K24(Z1), αMeY25, K28(Z1), C-term NH2; Z1=AEEA-(γ-Glu)-CO-(CH2)12-CO2H) | – | – | – | – | – | 0.023 | 0.224
12 | YXEGTXTSDXXIXLDXQAQXEFIKXLIKGGPSSGAPPPS (Aib2, αMeF(2F)6, 4Pal10, Aib11, αMeL13, Orn16, Aib20, K24(Z1), αMeY25, K28(Z1), C-term NH2; Z1=AEEA3-(γ-Glu)-CO-(CH2)12-CO2H) | – | – | – | – | – | 0.0528 | 0.433
